Results as given in patent publication US8435522 (Teva, dated 2013).
Values belong to the binder of their own block, whether it stands above or below them.

Columns and labels:
[1] = biological target: T1, CXCR3 (human cell surface protein CD183) (human, UniProt P49682 1-368); test: cell-based or functional assay
T1 sequence (looked up): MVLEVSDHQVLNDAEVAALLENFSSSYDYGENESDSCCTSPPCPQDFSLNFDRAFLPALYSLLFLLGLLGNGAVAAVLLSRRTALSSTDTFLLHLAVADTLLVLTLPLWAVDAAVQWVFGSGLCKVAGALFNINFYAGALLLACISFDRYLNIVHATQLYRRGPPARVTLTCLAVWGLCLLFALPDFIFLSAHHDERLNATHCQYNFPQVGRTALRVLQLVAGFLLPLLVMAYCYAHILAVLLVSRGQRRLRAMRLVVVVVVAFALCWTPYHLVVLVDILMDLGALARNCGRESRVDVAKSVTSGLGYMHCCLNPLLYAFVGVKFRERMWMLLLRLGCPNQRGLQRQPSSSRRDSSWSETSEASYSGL

[2] = biological target: T1, CXCR3 (human cell surface protein CD183); test: competition with Eu-IP-10 binding to Th1 cells
[3] = biological target: T1, CXCR3 (human cell surface protein CD183); test: competition with Eu-V44 (Eu-labeled mouse CXCR3mAb) binding to Th1 cells
Protocol: Th1 cells were incubated in a 96 well plate with Eu-CXCR3mAb in the absence or presence of various concentrations humanized CXCRmAbs. After incubation (1 hr at RT), cell bound Eu-CXCR3mAb was separated from free Europium by washing three times and the plate was read using Vctor2 fluorometer. IC$50$ values were calculated using Prizm software. Ab1 has a heavy chain sequence of humanized anti-CXCR3 V44D7 VH Lead #5 amino acid and a light chain sequence of humanized anti-CXCR3 V44D7 VK Lead #1 (see Informal Sequence Listing) in an IgG1 backbone. Ab2 has a heavy chain sequence of humanized anti-CXCR3 V44D7 VH Lead #5 and a light chain sequence of humanized anti-CXCR3 V44D7 VK Lead #7 (see Informal Sequence Listing) in an IgG1 backbone. Humanized Ab (IgG4) has a heavy chain sequence of humanized anti-CXCR3 V44D7 VH Lead #5 and a light chain sequence of the original mouse anti-CXCR3 V44D7 VK in an IgG4 backbone. Figure 22: FIG. 22 illustrates inhibition Eu-CXC10 by humanized CXCR3Abs. […] After incubation (1 hr at RT), cell bound Eu-CXCL10 was separated from free Europium by washing three times and the plate was read using Vctor2 fluorometer. IC$50$ values were calculated using Prizm software. […] After 2 hr incubation at 37° C., cells migrated to the bottom wells were determined by cell titer glo method (Promega).

[4] = biological target: T1, CXCR3 (human cell surface protein CD183); test: displacement of 125I-IP-10 binding to Th1 cells
Protocol: Figure 14: FIG. 14 illustrates expression of CXCR3 on Th1 cells. Th1 and Th2 cells were generated from cord blood and CXCR3 and CCR4 expression were determined by FACS. CXCR3 was present only Th1 cells. […] IC$50$ values were calculated using Prizm software. Lead candidates were highlighted in green. […] IC$50$ values were calculated using Prizm software. Lead candidates were highlighted in green.

[5] = biological target: T2, rat CXCR3 (on polarized rat Th1 cells) (rat, UniProt Q9JII9 1-367); test: FACS on polarized rat Th1 cells
T2 construct: whole, on cells; the target meant is rat CXCR3
T2 sequence (looked up): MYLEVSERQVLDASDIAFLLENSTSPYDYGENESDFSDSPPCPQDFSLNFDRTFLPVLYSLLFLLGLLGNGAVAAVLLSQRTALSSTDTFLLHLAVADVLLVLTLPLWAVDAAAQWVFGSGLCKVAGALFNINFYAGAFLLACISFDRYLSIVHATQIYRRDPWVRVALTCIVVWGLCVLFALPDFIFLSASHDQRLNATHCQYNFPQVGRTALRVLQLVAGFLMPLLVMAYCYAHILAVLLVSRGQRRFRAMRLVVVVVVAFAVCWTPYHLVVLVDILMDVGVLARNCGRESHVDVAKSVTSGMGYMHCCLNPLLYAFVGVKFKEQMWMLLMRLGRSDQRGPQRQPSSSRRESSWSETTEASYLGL
Protocol: FACS analysis was performed to determine reactivity of mouse CXCR3mAb to polarized rat Th1 cells. Only rabbit anti-mouse CXCR3 Ab bound to rat Th1 cells. […] As a control, mouse anti-CXCR3mAb binding to human Th1 cells is also shown (bottom panel).
The parental mouse CXCR3mAb was tested for binding to polarized rat Th1 cells by FACS. Only rabbit anti-mouse CXCR3 Ab (positive control) bound to rat Th1 cells.

[6] = biological target: T1, CXCR3 (human cell surface protein CD183); test: displacement of 125I-I-Tac binding to Th1 cells
[7] = biological target: T1, CXCR3 (human cell surface protein CD183); test: cell-based or functional assay; remark: listed apart in the source
[8] = biological target: T3, CXCR3 (human cell surface protein CD183) (human, UniProt P49682 1-368); test: 125I-CXCL11 binding inhibition on Th1 cells
T3 chain: T1 sequence (looked up)

Chemotaxis IC50 [1]: 280 pM
IC50 [2]: 350 pM
IC50 [3]: 1820 pM
B1: Humanized Ab2 H5K7 (antibody, V domains shown)
VH: EVQLLESGGGLVQPGGSLRLSCAASGFTFSNYAMSWVRQAPGKGLEWVSTISSGGGYTYYPDSLKGRFTISRDNSKNTLYLQMNSLRAEDTAVYYCAKHGAPMTTVITYAPYYFYYWGQGTTVTVSS
VL: ENVLTQSPAFLSVTPGEKVTITCRASSSVKYMYWYQQKPDQAPKLWIYYTSNLAPGVPSRFSGSGSGNDYTFTISSLEAEDAATYYCQQFTTSPYTFGGGTKLEIK
notes: IgG1 backbone, human kappa

Chemotaxis IC50 [1]: 90 pM
IC50 [4]: 130 pM
binding result [5]: no binding
IC50 [6]: 100 pM
Inhibition of IP-10-induced Th1 chemotaxis, IC50 [7]: 0.035 µg/mL
IC50 [2]: 140 pM
IC50 [3]: 290 pM
B2: Mouse anti-CXCR3 V44D7 (antibody, V domains shown)
VH: EVMLVESGGGLVKPGGSLKLSCAASGFTFSNYAMSWVRQTPEKRLEWVATISSGGGYTYYPDSLKGRFTISRDNAKNTLFLQMSSLRSEDTAVYYCVRHGAPMTTVITYAPYYFDYWGQGTTLTVSS
VL: ENVLTQSPAIMSASLGEKVTMNCRASSSVKYMYWYQQKSDASPKLWIYYTSNLAPGVPARFSGSGSGNSYSLTISSMEGEDAATYYCQQFTTSPYTFGGGTKLEIK
notes: also called V44D7A; Ab#5

IC50 [8]: 10 pM
B3: CXCL11 (I-TAC, interferon-inducible T cell a-chemoattractant) (ligand)
chain: FPMFKRGRCLCIGPGVKAVKVADIEKASIMYPSNNCDKIEVIITLKENKGQRCLNPKSKQARLIIKKVERKNF
modifications: 125I label, site not stated
